Reference: patent EP2801619A1 (Fondazione Edmund Mach, dated 2014)
One block for each binder: values may come before it.

B2: CURVATURE THYLAKOID1A (CURT1A) of Arabidopsis thaliana, endogenous protein in thylakoid membranes (other)
chain: ASSEETSSIDTNELITDLKEKWDGLENKSTVLIYGGGAIVAVWLSSIVVGAINSVPLLPKVMELVGLGYTGWFVYRYLLFKSSRKELAEDIESLKKKIAGSE
notes: Thylakoid membrane protein as found in plant thylakoids; also called At4g01150

Key:
[1] = target: the molecule itself; test: quantification of CURT1A crosslinking products from thylakoids of WT and CURT1A-cmyc overexpressors
[2] = target: the molecule itself; test: chemical crosslinking (BS3) of thylakoid proteins, SDS-PAGE and immunoblot, WT against curt1 mutants
[3] = target: B2; test: 2D-BN/SDS-PAGE of thylakoid multiprotein complexes (Fig. 5b)

B1: CURT1A with a C-terminal cmyc tag, expressed in curt1a-2 or WT plants (other)
chain: ASSEETSSIDTNELITDLKEKWDGLENKSTVLIYGGGAIVAVWLSSIVVGAINSVPLLPKVMELVGLGYTGWFVYRYLLFKSSRKELAEDIESLKKKIAGSE
notes: Coding region under the 35S promoter; also called CURT1A-cmyc; cmyc-tagged CURT1A; not shown: C-terminal cmyc tag from vector pPCV812deltaNotI-Lola
binding result [1]: binds

Binder: B2
binding result [2]: binds

binding result [3]: binds
B3: CURVATURE THYLAKOID1C (CURT1C) of Arabidopsis thaliana, endogenous protein in thylakoid membranes (other)
chain: ASGESSDSSTDLDVVSTIQNVWDKSEDRLGLIGLGFAGIVALWASLNLITAIDKLPVISSGFELVGILFSTWFTYRYLLFKPDRQELSKIVKKSVADILGQ
notes: Thylakoid membrane protein as found in plant thylakoids; also called At1g52220
